Consider 2 molecules from patent US20070167369A1 (KYUNGPOOK NATIONAL UNIVERSITY INDUSTRY ACADEMIC COOPERATION …, published 2007).

The target in assay [1] is T1, αvβ3 integrin (human, UniProt P06756 31-1048; P05106 27-788).
T1 construct: whole, on cells; On human umbilical vein endothelial cells (HUVECs); also called αvβ3 integrin of endothelial cells
Nature of the assay: binding of His-tagged protein to HUVECs in 96-well plates, His-probe-HRP detection, Scatchard analysis.
Procedure: (§1) HUVECs (3×10⁴ cells/100 μl) were seeded in the 96-well plates and then incubated with increasing concentrations of each protein for 1 hour at room temperature. Cell binding of each protein was detected by His-probe-HRP antibody and quantified by measuring hexosaminidase.

For assay [2], the target named is T1, αvβ3 integrin. Nature of the assay: binding to HUVECs, Scatchard analysis (Example 16); reference: fas-1 domain (βig-h3 D-IV).
Procedure: as §1

T1 sequence (P06756 31-1048, chain 1 of 2): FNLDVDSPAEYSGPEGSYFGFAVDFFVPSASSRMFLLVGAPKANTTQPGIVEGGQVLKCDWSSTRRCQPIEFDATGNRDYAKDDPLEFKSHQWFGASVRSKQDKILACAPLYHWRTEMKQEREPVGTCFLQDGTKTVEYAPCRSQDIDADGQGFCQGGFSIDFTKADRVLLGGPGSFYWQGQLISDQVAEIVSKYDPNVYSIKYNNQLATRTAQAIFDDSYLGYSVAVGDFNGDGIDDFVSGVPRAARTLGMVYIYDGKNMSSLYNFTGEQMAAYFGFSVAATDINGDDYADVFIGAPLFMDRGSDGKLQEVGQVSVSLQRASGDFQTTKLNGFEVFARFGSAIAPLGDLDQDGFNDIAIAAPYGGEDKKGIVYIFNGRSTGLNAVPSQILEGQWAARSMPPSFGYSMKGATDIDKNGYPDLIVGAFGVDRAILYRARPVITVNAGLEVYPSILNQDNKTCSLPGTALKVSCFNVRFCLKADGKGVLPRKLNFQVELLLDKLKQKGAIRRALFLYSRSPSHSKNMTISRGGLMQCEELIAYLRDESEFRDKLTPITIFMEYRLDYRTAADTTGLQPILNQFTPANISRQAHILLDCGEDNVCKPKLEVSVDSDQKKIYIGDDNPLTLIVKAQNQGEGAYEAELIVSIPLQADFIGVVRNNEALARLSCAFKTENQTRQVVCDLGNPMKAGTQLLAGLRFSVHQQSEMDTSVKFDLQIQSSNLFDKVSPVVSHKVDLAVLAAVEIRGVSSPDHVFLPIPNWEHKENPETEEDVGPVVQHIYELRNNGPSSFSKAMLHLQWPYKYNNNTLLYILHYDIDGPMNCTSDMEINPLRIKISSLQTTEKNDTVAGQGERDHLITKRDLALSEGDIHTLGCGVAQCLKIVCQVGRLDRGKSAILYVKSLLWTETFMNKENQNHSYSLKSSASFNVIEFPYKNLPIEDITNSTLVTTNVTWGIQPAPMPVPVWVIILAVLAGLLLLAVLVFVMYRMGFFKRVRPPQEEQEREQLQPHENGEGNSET
T1 sequence (P05106 27-788, chain 2 of 2): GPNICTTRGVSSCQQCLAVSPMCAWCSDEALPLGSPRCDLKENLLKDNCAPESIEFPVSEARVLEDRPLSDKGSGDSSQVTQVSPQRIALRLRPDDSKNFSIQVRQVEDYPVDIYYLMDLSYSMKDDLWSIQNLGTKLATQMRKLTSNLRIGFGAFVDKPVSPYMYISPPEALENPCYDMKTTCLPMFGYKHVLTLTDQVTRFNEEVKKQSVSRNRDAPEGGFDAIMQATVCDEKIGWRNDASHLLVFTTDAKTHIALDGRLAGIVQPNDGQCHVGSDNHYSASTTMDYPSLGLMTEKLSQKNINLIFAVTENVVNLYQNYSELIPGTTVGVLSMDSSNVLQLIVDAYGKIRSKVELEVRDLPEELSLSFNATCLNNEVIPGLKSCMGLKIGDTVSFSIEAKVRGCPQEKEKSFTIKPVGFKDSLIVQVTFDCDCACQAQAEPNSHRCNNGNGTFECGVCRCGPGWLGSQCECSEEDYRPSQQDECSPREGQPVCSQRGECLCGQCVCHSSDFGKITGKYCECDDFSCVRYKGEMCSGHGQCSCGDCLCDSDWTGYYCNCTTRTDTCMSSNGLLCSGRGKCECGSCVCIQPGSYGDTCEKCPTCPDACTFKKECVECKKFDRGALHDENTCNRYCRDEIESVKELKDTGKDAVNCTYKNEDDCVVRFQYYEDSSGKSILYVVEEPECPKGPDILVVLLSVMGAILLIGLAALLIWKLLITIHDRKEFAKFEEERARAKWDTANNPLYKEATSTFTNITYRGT

B1: recombinant human βig-h3 protein βig-h3 His-β-b (truncated βig-h3) (ligand)
chain: WYQRKICGKSTVISYECCPGYEKVPGEKGCPAALPLSNLYETLGVVGSTTTQLYTDRTEKLRPEMEGPGSFTIFAPSNEAWASLPAEVLDSLVSNVNIELLNALRYHMVGRRVLTDELKHGMTLTSMYQNSNIQIHHYPNGIVTVNCARLLKADHHATNGVVHLIDKVISTITNNIQQIIEIEDTFETLRAAVAASGLNTMLEGNGQYTLLAPTNEAFEKIPSETLNRILGDPEALRDLLNNHILKSAMCAEAIVAGLSVETLEGTTLEVGCSGDMLTINGKAIISNKDILATNGVIHYIDELLIPDSAKTLFELAAESDVSTAIDLFRQAGLGNHLSGSERLTLLAPLNSVFKDGTPPIDAHTRNLLRNHIIKDQLASKYLYHGQTLETLGGKKLRVFVYRNSLCIENSCIAAHDKRGRYGTLFTMDRVLTPPMGTVMDVLKGDNRFSMLVAAIQSAGLTETLNREGVYTVFAPTNEAFRALPPRERSRLLGDAKELANILKYHIGDEILVSGGIGALVRLKSLQGDKLEVSLKNNVVSVNKEPVAEPDIMATNGVVHVITNVLQPPANRPQERGDELADSALEI
notes: also called βig-h3 His-1-b; Wild-type; not shown: vector-derived residues / His tag from the pET-29 vector (Ni-NTA purified, detected with His-probe-HRP)
For orientation: Kd means the free concentration of one partner at which half of the binding sites on the other are occupied at equilibrium, for simple one-to-one binding. High values mean a looser complex, low ones a tighter complex. In the case of B1, in the assay with αvβ3 integrin [1], the Kd is approximately 0.303 µM. In the assay with αvβ3 integrin [2], the “Kd relative to that of the fas-1 domain of βig-h3” value is 100 fold less.

B2: βig-h3 D-IV (recombinant protein containing the fourth fas-1 domain of human βig-h3) (ligand)
chain: MGTVMDVLKGDNRFSMLVAAIQSAGLTETLNREGVYTVFAPTNEAFRALPPRERSRLLGDAKELANILKYHIGDEILVSGGIGALVRLKSLQGDKLEVSLKNNVVSVNKEPVAEPDIMATNGVVHVITNVL
notes: Cloned in pET-29b(+), Ni-NTA purified; also called fas-1 protein
In the assay with αvβ3 integrin [1], B2 showed a Kd of approximately 30 µM.
